Data published in patent publication US6855515B1, “Autoantigenic fragments, methods and assays” (Merck & Co., Inc., priority 1998, dated 2005).

Key:
[1] = test system: endogenous DNA-PKcs, NuMA and PARP in HeLa cell lysates; test: Cleavage of endogenous substrates in HeLa lysates after adding purified granzyme B, with caspase inhibitors; type: biochemical; details: for cleavage of PARP: inhibitor added 15 minutes prior to 12.5 nM granzyme B, 100 nM Ac-DEVD-CHO or 2 mM iodoacetamide
Method: (§1) Control HeLa lysates were prepared using methods commonly applied in the art, as described in Casciola-Rosen et al., 1994. […] The mixtures were incubated for 15 mn on ice to facilitate binding of the inhibitors to proteases prior to performing cleavage reactions at 37° C. for 60 min. After electrophoresing the samples on 10% SDS-polyacrylamide gels containing 0.087% bisacrylamide, the intact proteins and their cleaved fragments were visualized by immunoblotting.

granzyme B = biological target: T1, granzyme B (Homo sapiens, UniProt P10144); test: Susceptibility of autoantigens to cleavage by purified granzyme B (HeLa lysate immunoblot or immunoprecipitates); type: biochemical; details: in vitro
T1 construct: Some of these preparations were used for the further purification of granzyme B (Tschopp, 1994); endogenous in cells; host or cells: YT cells (human NK cell line), cytoplasmic granules
Method: To determine whether susceptibility to direct cleavage by granzyme B was an isolated feature of PARP, NuMA and DNA-PKcs shown above, or whether it was a more general feature of autoantigens, a variety of well-defined autoantigens selected from across the spectrum of systemic autoimmune diseases were tested for susceptibility to cleavage by purified granzyume B. The efficiency of cleavage of the substrates by purified granzyme B was also noted (Table 3). Initially, a series of autoantibodies of well-defined specificity were used to immunoblot lysates of HeLa cells that had been incubated in vitro with or without granzyme B. Lysates were pre-treated with iodoacetamide (IAA) to prevent interference by endogenous caspase activity.
To perform these studies, HeLa cells were radiolabeled with [^35S] methionine/cysteine, and proteins were immunoprecipitated using human autoantibodies. Protein A-agarose beads containing washed precipitated proteins were resuspended in buffer supporting the activity of granzyme B, and incubated in the absence or presence of added purified granzyme B. Reaction products were visualized using SDS-PAGE and fluorography. To confirm the validity of this approach, several different autoantigens known to be cleaved by granzyme B, as well as several autoantigens and non-autoantigens that are not cleaved by granzyme B, were tested. Using autoantibodies that both immunoblot and immunprecipitate, the cleavage profiles obtained using granzyme B to cleave molecules in lysates (followed by detection with immunoblotting), and after immunoprecipitation (from [^35S]methionine-labeled HeLa lysate) were compared. Identical results were obtained using these 2 methods for cleaved autoantigens (topoisomerase-1, Mi-2, RNA polymerase II large subunit, Ku-70, PARP, and NOR-90), uncleaved autoantigens (Ku-80, Ro 60k), and control substrates (β-tubulin, vinculin). […] Of note, all these additional autoantigens (with the exception of RNA polymerase I) are targeted in autoimmune myositis. However, two other tRNA synthetases (threonyl tRNA synthetase and glycyl tRNA synthetase) that are also autoantigens in autoimmune myositis, were not cleaved using this approach.

caspase-8 = caspase-8 (Homo sapiens, UniProt Q14790); test: Cleavage of substrates by purified caspase-8; type: biochemical; details: 50 nM purified caspase-8; HeLa lysates treated with iodoacetamide, or radiolabeled IvTT substrate
Method: To confirm that these substrates were not cleaved by group III caspases, the substrates were incubated with 50 nM purified caspase-8. Cleavage assays were performed in HeLa cell lysates in which endogenous caspases had first been irreversibly inactivated by 1 mM iodoacetamide (4° C. for 15 min), prior to addition of 5 mM DTT to facilitate exogenous caspase-8 activity. No cleavage of topoisomerase-1, Mi-2, U1-70 kDa, PARP, Ku-70, RNA polymerase II large subunit, SRP-72, NuMA or Ki-67 occurred. Caspase-8 was indeed active in these lysates, as evidenced by robust caspase-3 cleavage products of PARP and U1-70 kDa seen when the IAA ‘poisoning’ step was omitted. Radiolabeled PMS1 and PMS2 (generated by IvTT) were also not cleaved by purified caspase-8.

[2] = test system: K562 erythroleukemia cells; test: Substrate cleavage in Fas-negative K562 target cells attacked by LAK cells; type: cell-based
Method: LAK cells were obtained by culturing human PBMCs for 4 days in LAK medium (RPMI supplemented with 10 mM Hepes pH 7.4, L-glutamine, 2% autologous plasma), and 1000 Cetus units/ml of hrIL-2 (Chiron Therapeutics, Emeryville, Calif.) (Topalian et al., 1989). […] After 2 washes with PD, cells were lysed and boiled in SDS sample buffer, and PARP, DNA-PKcs and NuMA were assayed by immunoblotting as described above.

K562 cells = test: Substrate cleavage in intact K562 cells during YT cell granule content-induced cytotoxicity; type: cell-based; details: 100 μM Ac-DEVD-CHO
Method: Intact cytoplasmic granules were purified from YT cells, and the granule contents were isolated using known methods (Tschopp, 1994). Some of these preparations were used for the further purification of granzyme B (Tschopp, 1994). Purity of the protease was confirmed by silver staining of overloaded SDS-polyacrylamide gels. The cytotoxic effects of YT granule contents were determined as follows: Jurkat T cells or K562 cells were radiolabeled with 100 μCi/ml [^51Cr] sodium chromate, washed, resuspended in Ca^2+-free HBSS, and then incubated with granule contents (0-5 μl) and 1 mM CaCl2 for increasing times. The percentage specific [^51Cr] was calculated using the following formula: % specific lysis=[(sample cpm−spontaneous cpm)/(maximum cpm−spontaneous cpm)]×100. […] Aliquots containing 3.4×10^5 cells were incubated for a further 90 min at 37° C. with 1 mM EDTA or 1 mM Ca^2+ and 2 μl of YT granule contents (which induces 20-40% specific chromium release in 60 min, and characteristic internucleosomal DNA degradation. The total reaction volume of each sample was 30 μl. The reactions were terminated by boiling in SDS gel buffer and samples were electrophoresed and immunoblotted as described above. Experiments were performed using 2 different preparations of granule contents and 4 different cell types (K562, Jurkat, HeLa, primary human myoblasts).

HeLa cells = test: Confocal immunofluorescence of morphologic changes in HeLa cells exposed to YT cell granule contents; type: cell-based; details: 100 μM Ac-DEVD-CHO
Method: Morphologic experiments were performed on HeLa cells grown on No. 1 glass coverslips. […] 25 μl of HBSS containing 2 mM CaCl2 was then added to each coverslip (mixed well by repeated, gentle aspiration), followed by incubation in a humidified chamber at 37° C. for 60 min. […] Coverslips were mounted on glass slides with Permafluor (Lipshaw, Pittsburgh, Pa.), and confocal microscopy was performed on a scanning confocal microscopy system (LSM 410, Carl Zeiss, Inc., Thornwood, N.J.).

caspase-10 = biological target: T2, caspase-10 (Homo sapiens, UniProt Q92851); details: cited from earlier work
T2 sequence (Q92851 220-415 limits assumed): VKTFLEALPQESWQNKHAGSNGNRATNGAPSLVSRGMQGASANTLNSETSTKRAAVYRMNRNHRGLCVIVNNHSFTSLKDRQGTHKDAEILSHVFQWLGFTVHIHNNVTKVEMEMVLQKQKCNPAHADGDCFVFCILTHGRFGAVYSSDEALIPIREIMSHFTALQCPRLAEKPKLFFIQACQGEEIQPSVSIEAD
T2 sequence (Q92851 416-521 limits assumed): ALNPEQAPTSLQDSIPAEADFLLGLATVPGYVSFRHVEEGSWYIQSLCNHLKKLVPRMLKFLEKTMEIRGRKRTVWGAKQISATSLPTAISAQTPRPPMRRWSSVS

caspase-3 [3] = biological target: T3, caspase-3 (Homo sapiens, UniProt P42574); test: Cleavage of endogenous substrates in HeLa lysates by added purified caspase-3, with inhibitors; type: biochemical; details: 100 nM inhibitor, HeLa lysate, 105 pM caspase-3, 37° C. 60 min
T3 construct: made in house
T3 sequence (P42574 29-175 limits assumed): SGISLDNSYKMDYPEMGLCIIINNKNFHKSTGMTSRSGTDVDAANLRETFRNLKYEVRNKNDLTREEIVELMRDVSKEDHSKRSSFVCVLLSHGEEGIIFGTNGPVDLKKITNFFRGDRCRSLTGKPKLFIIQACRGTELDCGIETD
T3 sequence (P42574 176-277 limits assumed): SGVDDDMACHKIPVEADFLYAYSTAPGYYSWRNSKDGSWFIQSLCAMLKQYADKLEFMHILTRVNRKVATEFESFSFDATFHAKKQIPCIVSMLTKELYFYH
Method: as §1

caspase-1 = biological target: T4, caspase-1 (Homo sapiens, UniProt P29466); details: cited from earlier work
T4 sequence (P29466 120-297 limits assumed): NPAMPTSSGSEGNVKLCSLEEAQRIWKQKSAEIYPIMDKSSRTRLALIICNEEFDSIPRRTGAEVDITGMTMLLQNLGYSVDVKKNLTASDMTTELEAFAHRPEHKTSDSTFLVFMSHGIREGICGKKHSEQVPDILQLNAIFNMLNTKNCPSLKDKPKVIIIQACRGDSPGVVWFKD
T4 sequence (P29466 317-404 limits assumed): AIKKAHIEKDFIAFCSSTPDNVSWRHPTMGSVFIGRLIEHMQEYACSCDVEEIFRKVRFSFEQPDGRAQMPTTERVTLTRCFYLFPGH

caspase-7 = biological target: T5, caspase-7 (Homo sapiens, UniProt P55210); details: cited from earlier work
T5 sequence (P55210 24-198 limits assumed): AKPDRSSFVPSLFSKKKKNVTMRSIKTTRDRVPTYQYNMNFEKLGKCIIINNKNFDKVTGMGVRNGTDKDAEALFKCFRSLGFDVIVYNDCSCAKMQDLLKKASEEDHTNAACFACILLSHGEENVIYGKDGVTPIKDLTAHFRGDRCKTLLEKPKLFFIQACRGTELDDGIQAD
T5 sequence (P55210 207-303 limits assumed): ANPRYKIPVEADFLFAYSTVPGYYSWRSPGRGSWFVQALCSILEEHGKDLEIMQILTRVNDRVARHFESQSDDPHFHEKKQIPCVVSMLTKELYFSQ

caspase-3 [4] = biological target: T3, caspase-3; details: cited from earlier work
[5] = 100 μM Ac-DEVD-CHO, LAK:K562 5:1

T1 sequence (P10144 21-247): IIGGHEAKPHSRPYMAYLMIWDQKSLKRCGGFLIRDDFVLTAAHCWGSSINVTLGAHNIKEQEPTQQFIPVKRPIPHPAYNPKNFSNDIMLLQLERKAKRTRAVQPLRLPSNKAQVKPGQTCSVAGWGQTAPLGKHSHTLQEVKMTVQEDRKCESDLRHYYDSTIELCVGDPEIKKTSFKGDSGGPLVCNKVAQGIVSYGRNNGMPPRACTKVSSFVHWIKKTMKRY
Sequence of caspase-8 (Q14790 217-374 limits assumed, species assumed): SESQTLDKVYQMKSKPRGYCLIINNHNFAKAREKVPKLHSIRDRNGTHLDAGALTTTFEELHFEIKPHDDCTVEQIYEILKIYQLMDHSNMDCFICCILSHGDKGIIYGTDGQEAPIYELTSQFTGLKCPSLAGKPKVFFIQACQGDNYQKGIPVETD
Sequence of caspase-8 (Q14790 385-479 limits assumed, species assumed): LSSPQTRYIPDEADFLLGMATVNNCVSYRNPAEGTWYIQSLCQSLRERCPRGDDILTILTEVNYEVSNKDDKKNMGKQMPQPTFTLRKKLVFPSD

Molecule: NC(=O)CI [iodoacetamide]
- cleavage of PARP [1]: almost entirely abolished

Molecule: KI-67: autoantigen
- susceptibility to cleavage by granzyme B (granzyme B): cleaved
- cleavage by caspase-8 (caspase-8): No cleavage

Molecule: Ku-70: autoantigen
- susceptibility to cleavage by granzyme B (granzyme B): efficiently cleaved
- cleavage by caspase-8 (caspase-8): No cleavage

Molecule: Ku-80: uncleaved autoantigen
- susceptibility to cleavage by granzyme B (granzyme B): uncleaved

Molecule: N-(N-Ac-Asp-Glu-Val)-3-amino-4-oxobutanoic acid [Ac-DEVD-CHO]
- 100 kDa granzyme B-specific fragment of DNA-PKcs [2, 5]: insensitive
- inhibition of generation of caspase-3-specific fragments of DNA-PKcs [2, 5]: > 90%
- PARP cleavage ([2]; 100 μM Ac-DEVD-CHO, LAK:K562 5:1, 4 h): entirely abolished
- cleavage of PMS1 ([2]; intact cell killing by LAK cells, Ac-DEVD-CHO added): unaffected
- generation of 150 kDa and 120 kDa DNA-PKcs fragments (K562 cells; YT granule contents): entirely inhibited
- generation of the 89 kDa PARP fragment (K562 cells; YT granule contents plus Ca2+): completely inhibited
- production of granzyme B-specific cleavage fragments of DNA-PKcs and NuMA (K562 cells; YT granule contents plus Ca2+): not inhibited
- cleavage of PARP [1]: almost entirely abolished
- generation of caspase-3-specific fragments of NuMA (185 kDa) and DNA-PKcs (150 kDa C-terminal) ([1]; inhibitor added prior to granzyme B): abolished
- granule content-induced surface blebbing, nuclear fragmentation, apoptotic bodies, redistribution of nuclear autoantigens (HeLa cells): prevented

Molecule: N-(N-Ac-Tyr-Val-Ala)-3-amino-4-oxobutanoic acid [Ac-YVAD-CHO]
- Ki (caspase-10): 408 nM
- substrate fragments generated by the activity of caspase-3 (caspase-3 [3]): unaffected
- Ki (caspase-1): 0.6 nM
- Ki (caspase-7): > 10000 nM
- Ki (caspase-3 [4]): > 10000 nM

Molecule: PMS2: autoantigen
- susceptibility to cleavage by granzyme B (granzyme B): cleaved
- cleavage by caspase-8 (caspase-8): not cleaved

Molecule: RNA polymerase I: autoantigen
- susceptibility to cleavage by granzyme B (granzyme B): cleaved

Molecule: Ro52 kDa: ribonucleoprotein autoantigen
- susceptibility to cleavage by granzyme B (granzyme B): not susceptible to cleavage

Molecule: Ro 60k: ribonucleoprotein autoantigen
- susceptibility to cleavage by granzyme B (granzyme B): uncleaved
- susceptibility to cleavage by granzyme B (granzyme B; listed as Ro 60 kDa): not susceptible to cleavage

Molecule: Topoisomerase I: autoantigen
- susceptibility to cleavage by granzyme B (granzyme B; listed as topoisomerase-1): efficiently cleaved
- cleavage by caspase-8 (caspase-8): No cleavage

Molecule: U1-70 kDa: autoantigen cleaved by caspases during apoptosis
- susceptibility to cleavage by granzyme B (granzyme B): efficiently cleaved
- cleavage by caspase-8 (caspase-8): No cleavage

Molecule: nuclear mitotic apparatus protein [NuMA]
- cleavage by caspase-8 (caspase-8): No cleavage

Molecule: poly(ADP-ribose)polymerase [PARP]
- susceptibility to cleavage by granzyme B (granzyme B): efficiently cleaved
- cleavage by caspase-8 (caspase-8): No cleavage

Molecule: vinculin: control substrate, non-autoantigen [reference compound]
- susceptibility to cleavage by granzyme B (granzyme B): not cleaved
